From patent US12583895B2, “Polypeptides for restoring endothelial function and methods of use thereof” (Vanderbilt University, priority 2019, dated 2026)
Non-standard residues stand in square brackets, D forms with d. No end group written: not given here. pS = N[C@@H](COP(=O)(O)O)C(=O)O

Experiments:
rat aorta = assay: Endothelial-dependent relaxation of rat aorta after endoplasmic reticulum stress (tunicamycin) injury; format: cell-based; conditions: NiPp 100 and 500 μM, 2 hours, room temperature
Experimental: Freshly isolated rat aorta was treated with tunicamycin (TM) to induce injury in the absence or presence of NiPp (100 and 500 μM) for 2 hours at room temperature. To determine the effect of injury on endothelial function, phenylephrine (PE)-precontracted tissues were treated with carbachol (CCH; 10^−8 to 10^−5M) and the percent relaxation was determined as a change to the maximal PE-induced contraction. Data are reported as mean responses±standard deviation. n=6. *p<0.05, two-way ANOVA.
Muscle bath studies. Tissue rings were suspended in bicarbonate buffer in the muscle bath at 37° C., equilibrated with 95% O2/5% CO2 at 37° C. for 1 hour. Rings were manually stretched to 3 grams of tension, followed by a resting tension of 1 gram for an additional 1 hour to produce a maximal force-tension relationship. […] Relaxation was calculated as percent change in stress compared to the maximal PE-induced contraction (set as 100%).
Freshly isolated rat aorta was treated with tunicamycin (TM) to induce injury in the absence or presence of NiPp (100 and 500 μM) for 2 hours at room temperature. To determine the effect of injury on endothelial function, phenylephrine (PE)-precontracted tissues were treated with carbachol (CCH; 10^−8 to 10^−5M) and the percent relaxation was determined as a change to the maximal PE-induced contraction. […]

p38 MAPK δ isoform = molecular target: T1, p38 MAPK δ isoform (Homo sapiens, UniProt O15264); assay: SelectScreen kinase profiling; format: biochemical; conditions: NiPp 100 μM
T1 sequence (O15264 1-365): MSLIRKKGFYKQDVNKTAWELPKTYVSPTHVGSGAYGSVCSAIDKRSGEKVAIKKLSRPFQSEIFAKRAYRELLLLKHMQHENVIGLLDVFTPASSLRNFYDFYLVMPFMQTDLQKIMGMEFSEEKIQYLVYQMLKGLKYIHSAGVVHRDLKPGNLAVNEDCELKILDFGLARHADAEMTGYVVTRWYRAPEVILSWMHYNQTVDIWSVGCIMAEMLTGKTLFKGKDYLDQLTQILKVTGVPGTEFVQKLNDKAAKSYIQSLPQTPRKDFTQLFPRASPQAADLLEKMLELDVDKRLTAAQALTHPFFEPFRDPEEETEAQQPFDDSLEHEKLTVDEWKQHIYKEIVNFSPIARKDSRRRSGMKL
Experimental: (§1) Kinase profiling. NiPp was dissolved in DMSO, screened at a single concentration of 100 μM using in vitro kinase assays (SelectScreen Kinase Profiling Service; ThermoFisher Scientific, Madison WI) including the Z'LYTE and Adapta kinase activity assays and the LanthaScreen Eu Kinase Binding Assay). Candidate interactions were predicted using STRING Version 11 (www.string-db-org) with the human database at confidence=0.7.
(§2) Since NiPp treatment was associated with decreased phosphorylation of p38 MAPK in RA, a mechanism of NiPp function can kinase inhibition. Therefore, a kinase profiling assay was performed to determine the effect of NiPp on the activity of a panel of kinases in vitro. The top two kinases inhibited by NiPp were MSK1 and p38 MAPKα. Inhibition to the p38 MAPKα isoform appeared to be specific as inhibition by NiPp to the other isoforms (β, δ, and γ) in the kinaseprofiling screen were only at 5, 3, and 3% respectively. Despite high sequence homology, the isoforms have difference in tissue expression, upstream kinase activators and downstream substrates. The p38 MAPKα isoform, initially identified as a protein that underwent phosphorylation in response to endotoxin treatment and hyperosmolarity shock, plays a role in endothelial dysfunction in that inhibition of this isoform leads to improved endothelial function in animal models of cardiovascular diseases including cardiac hypertrophy, balloon injury, salt/fat induced hypertension and in hypercholesterolemic patients. The α-isoform is also a key regulator of pro-inflammatory cytokine production and itself can be activated by IL1-β. MSK1, a downstream kinase of the p38 MAPK activation (FIG. 19), has complex cell-dependent roles in inflammatory responses. In endothelial cells, MSK1 promotes CREB activation in response to TNFα.

p38 MAPK γ isoform = molecular target: T2, p38 MAPK γ isoform (Homo sapiens, UniProt P53778); assay: SelectScreen kinase profiling; format: biochemical; conditions: NiPp 100 μM
T2 sequence (P53778 1-367): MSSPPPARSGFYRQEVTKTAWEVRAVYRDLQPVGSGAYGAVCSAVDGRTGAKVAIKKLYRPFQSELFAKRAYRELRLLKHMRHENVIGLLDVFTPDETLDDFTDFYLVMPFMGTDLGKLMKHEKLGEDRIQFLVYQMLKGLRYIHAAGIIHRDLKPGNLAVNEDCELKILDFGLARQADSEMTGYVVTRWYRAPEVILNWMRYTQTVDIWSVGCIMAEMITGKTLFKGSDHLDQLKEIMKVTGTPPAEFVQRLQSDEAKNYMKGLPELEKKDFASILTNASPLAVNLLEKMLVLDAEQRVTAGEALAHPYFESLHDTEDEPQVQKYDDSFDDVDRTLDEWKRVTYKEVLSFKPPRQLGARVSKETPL
Experimental: as §1, §2

p38 MAPK β isoform = p38 MAPK β isoform (Homo sapiens, UniProt Q15759); assay: SelectScreen kinase profiling; format: biochemical; conditions: NiPp 100 μM
Experimental: as §1, §2

p38 MAPK β isoform, sequence (Q15759 whole entry, canonical isoform): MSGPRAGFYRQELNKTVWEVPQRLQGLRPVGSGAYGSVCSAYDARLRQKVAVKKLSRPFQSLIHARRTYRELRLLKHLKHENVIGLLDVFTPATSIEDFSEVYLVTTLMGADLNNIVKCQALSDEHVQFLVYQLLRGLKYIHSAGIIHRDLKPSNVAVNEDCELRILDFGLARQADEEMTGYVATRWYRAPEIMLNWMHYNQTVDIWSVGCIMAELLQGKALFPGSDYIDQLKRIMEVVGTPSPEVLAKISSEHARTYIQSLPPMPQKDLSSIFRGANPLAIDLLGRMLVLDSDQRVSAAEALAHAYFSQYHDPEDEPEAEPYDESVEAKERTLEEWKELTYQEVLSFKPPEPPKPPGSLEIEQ

“YARAAARQARASPAARRA(pS)AILPG (YARAAARQARASPAARRA[pS]AILPG) [NiPp, Cell-permeant phosphopeptide mimetic of Niban: transduction domain … conjugated to the region surrounding serine 602 of Niban]” was tested. Which “endothelial function (percent relaxation to carbachol) after tunicamycin injury” value (rat aorta) did it give?
The value was “restored”.

What about the “% inhibition of p38 MAPK δ isoform” value (p38 MAPK δ isoform) of the same substance?
The value was 3%.

And the “% inhibition of p38 MAPK γ isoform” value (p38 MAPK γ isoform)?
Its value is 3%.

And the “% inhibition of p38 MAPK β isoform” value (p38 MAPK β isoform)?
The value was 5%.
